B3: Sth1, the large ATPase subunit of the RSC remodeler complex (natural protein, S. cerevisiae)
chain: MLQEQSELMSTVMNNTPTTVAALAAVAAASETNGKLGSEEQPEITIPKPRSSAQLEQLLYRYRAIQNHPKENKLEIKAIEDTFRNISRDQDIYETKLDTLRKSIDKGFQYDEDLLNKHLVALQLLEKDTDVPDYFLDLPDTKNDNTTAIEVDYSEKKPIKISADFNAKAKSLGLESKFSNATKTALGDPDTEIRISARISNRINELERLPANLGTYSLDDCLEFITKDDLSSRMDTFKIKALVELKSLKLLTKQKSIRQKLINNVASQAHHNIPYLRDSPFTAAAQRSVQIRSKVIVPQTVRLAEELERQQLLEKRKKERNLHLQKINSIIDFIKERQSEQWSRQERCFQFGRLGASLHNQMEKDEQKRIERTAKQRLAALKSNDEEAYLKLLDQTKDTRITQLLRQTNSFLDSLSEAVRAQQNEAKILHGEEVQPITDEEREKTDYYEVAHRIKEKIDKQPSILVGGTLKEYQLRGLEWMVSLYNNHLNGILADEMGLGKTIQSISLITYLYEVKKDIGPFLVIVPLSTITNWTLEFEKWAPSLNTIIYKGTPNQRHSLQHQIRVGNFDVLLTTYEYIIKDKSLLSKHDWAHMIIDEGHRMKNAQSKLSFTISHYYRTRNRLILTGTPLQNNLPELWALLNFVLPKIFNSAKTFEDWFNTPFANTGTQEKLELTEEETLLIIRRLHKVLRPFLLRRLKKEVEKDLPDKVEKVIKCKLSGLQQQLYQQMLKHNALFVGAGTEGATKGGIKGLNNKIMQLRKICNHPFVFDEVEGVVNPSRGNSDLLFRVAGKFELLDRVLPKFKASGHRVLMFFQMTQVMDIMEDFLRMKDLKYMRLDGSTKTEERTEMLNAFNAPDSDYFCFLLSTRAGGLGLNLQTADTVIIFDTDWNPHQDLQAQDRAHRIGQKNEVRILRLITTDSVEEVILERAMQKLDIDGKVIQAGKFDNKSTAEEQEAFLRRLIESETNRDDDDKAELDDDELNDTLARSADEKILFDKIDKERMNQERADAKAQGLRVPPPRLIQLDELPKVFREDIEEHFKKEDSEPLGRIRQKKRVYYDDGLTEEQFLEAVEDDNMSLEDAIKKRREARERRRLRQNGTKENEIETLENTPEASETSLIENNSFTAAVDEETNADKETTASRSKRRSSRKKRTISIVTAEDKENTQEESTSQENGGAKVEEEVKSSSVEIINGSESKKKKPKLTVKIKLNKTTVLENNDGKRAEEKPESKSPAKKTAAKKTKTKSKSLGIFPTVEKLVEEMREQLDEVDSHPRTSIFEKLPSKRDYPDYFKVIEKPMAIDIILKNCKNGTYKTLEEVRQALQTMFENARFYNEEGSWVYVDADKLNEFTDEWFKEHSS
notes: Sth1, budding yeast, as it stands in the purified RSC complex; Present within m2 in the cross-linking experiment; also called RSC ATPase; source: subunit of RSC purified from budding yeast (TAP-tagged Rsc2)

Common to all, as to conditions: both partners purified
Experiment [1] concerns the target T1, Scc2-Scc4 cohesin loader complex (S. cerevisiae, UniProt Q04002 1-1493; P40090 1-624).
T1 construct: Scc2, cohesin loader subunit, budding yeast; Scc4, cohesin loader subunit, budding yeast; Purified by a protein A tag that was removed by 3C protease; also called 2-4
The experiment can be described thus: co-IP; 50 nM Scc2-Scc4 and 50 nM RSC or Sth1 365-1097 mixed in IP buffer (25 mM Tris-HCl pH 7.5, 100 mM NaCl, 2.5 mM MgCl2, 0.2% Triton X-100, 5% glycerol, 0.5 mM TCEP), loader captured on anti-HA protein A magnetic beads, last wash 300 mM NaCl; Sth1 detected by immunoblotting. A general note: In western blotting, separated proteins are transferred to a membrane and probed.

Experiment [2] concerns the target B3. Briefly: cross-linking; 0.5 uM cohesin loader and 0.5 uM RSC in CLMS buffer (22.5 mM HEPES-KOH pH 7.5, 75 mM NaCl, 100 mM potassium acetate, 10% glycerol, 0.5 mM TCEP), 1 mM DSSO 15 min 37 C, trypsin digest, tandem mass spectrometry; two biological repeats.
For experiment [3], the target named is T2, Scc2 subunit of the cohesin loader (S. cerevisiae, UniProt Q04002 1-1493).
T2 construct: Scc2, budding yeast, as it stands in the purified Scc2-Scc4 complex; Present within m1 in the cross-linking experiment; tags as told under m1; source: subunit of Scc2-Scc4 purified from budding yeast (overexpressed)
T2 sequence (looked up): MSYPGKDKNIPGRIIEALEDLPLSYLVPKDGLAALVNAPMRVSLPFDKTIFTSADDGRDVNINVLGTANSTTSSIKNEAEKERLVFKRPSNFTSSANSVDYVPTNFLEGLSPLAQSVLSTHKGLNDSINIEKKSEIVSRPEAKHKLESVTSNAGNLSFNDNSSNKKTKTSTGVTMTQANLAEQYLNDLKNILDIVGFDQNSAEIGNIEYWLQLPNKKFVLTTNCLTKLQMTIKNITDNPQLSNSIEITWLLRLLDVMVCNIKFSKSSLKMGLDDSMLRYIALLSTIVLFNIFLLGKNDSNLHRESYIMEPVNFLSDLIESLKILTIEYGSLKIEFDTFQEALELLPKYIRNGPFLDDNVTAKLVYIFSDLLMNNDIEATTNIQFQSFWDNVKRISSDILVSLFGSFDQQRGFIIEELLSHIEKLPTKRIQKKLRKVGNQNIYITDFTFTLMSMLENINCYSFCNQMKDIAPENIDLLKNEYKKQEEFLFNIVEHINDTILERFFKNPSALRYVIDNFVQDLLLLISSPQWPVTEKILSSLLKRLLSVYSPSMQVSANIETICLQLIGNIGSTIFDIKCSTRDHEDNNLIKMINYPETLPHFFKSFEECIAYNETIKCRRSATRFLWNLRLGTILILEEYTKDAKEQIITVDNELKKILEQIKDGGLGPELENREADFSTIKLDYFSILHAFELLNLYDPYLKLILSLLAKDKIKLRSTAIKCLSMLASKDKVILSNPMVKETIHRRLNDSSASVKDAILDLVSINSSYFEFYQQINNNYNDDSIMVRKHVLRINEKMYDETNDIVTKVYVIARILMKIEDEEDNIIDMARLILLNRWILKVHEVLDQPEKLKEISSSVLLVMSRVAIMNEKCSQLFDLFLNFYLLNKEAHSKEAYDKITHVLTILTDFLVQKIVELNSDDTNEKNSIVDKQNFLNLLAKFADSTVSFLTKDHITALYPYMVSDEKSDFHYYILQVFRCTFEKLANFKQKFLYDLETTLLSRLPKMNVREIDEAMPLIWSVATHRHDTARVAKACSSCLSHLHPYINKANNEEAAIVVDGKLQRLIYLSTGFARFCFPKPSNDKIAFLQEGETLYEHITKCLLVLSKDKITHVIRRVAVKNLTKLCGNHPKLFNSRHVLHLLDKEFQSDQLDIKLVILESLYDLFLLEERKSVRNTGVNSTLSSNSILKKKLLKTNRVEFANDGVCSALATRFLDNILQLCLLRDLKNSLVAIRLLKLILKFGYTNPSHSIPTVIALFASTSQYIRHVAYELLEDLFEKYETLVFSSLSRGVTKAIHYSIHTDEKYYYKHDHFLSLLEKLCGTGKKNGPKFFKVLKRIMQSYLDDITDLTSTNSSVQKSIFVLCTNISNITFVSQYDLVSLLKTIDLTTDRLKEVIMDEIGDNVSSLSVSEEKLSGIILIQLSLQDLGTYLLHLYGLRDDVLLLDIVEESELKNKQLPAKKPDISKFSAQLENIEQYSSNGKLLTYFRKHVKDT
The description is as above.

B1: Sth1 365-1097 fragment (ATPase motor module) (domain or fragment, S. cerevisiae, UniProt P32597 365-1097, looked up)
chain: DEQKRIERTAKQRLAALKSNDEEAYLKLLDQTKDTRITQLLRQTNSFLDSLSEAVRAQQNEAKILHGEEVQPITDEEREKTDYYEVAHRIKEKIDKQPSILVGGTLKEYQLRGLEWMVSLYNNHLNGILADEMGLGKTIQSISLITYLYEVKKDIGPFLVIVPLSTITNWTLEFEKWAPSLNTIIYKGTPNQRHSLQHQIRVGNFDVLLTTYEYIIKDKSLLSKHDWAHMIIDEGHRMKNAQSKLSFTISHYYRTRNRLILTGTPLQNNLPELWALLNFVLPKIFNSAKTFEDWFNTPFANTGTQEKLELTEEETLLIIRRLHKVLRPFLLRRLKKEVEKDLPDKVEKVIKCKLSGLQQQLYQQMLKHNALFVGAGTEGATKGGIKGLNNKIMQLRKICNHPFVFDEVEGVVNPSRGNSDLLFRVAGKFELLDRVLPKFKASGHRVLMFFQMTQVMDIMEDFLRMKDLKYMRLDGSTKTEERTEMLNAFNAPDSDYFCFLLSTRAGGLGLNLQTADTVIIFDTDWNPHQDLQAQDRAHRIGQKNEVRILRLITTDSVEEVILERAMQKLDIDGKVIQAGKFDNKSTAEEQEAFLRRLIESETNRDDDDKAELDDDELNDTLARSADEKILFDKIDKERMNQERADAKAQGLRVPPPRLIQLDELPKVFREDIEEHFKKEDSEPLGRIRQKKRVYYDDGLTEEQFLEAVEDDNMSLEDAIKKRREARERRRLRQ
notes: Cloned into pGEX-6P-2; also called Sth1 ATPase module; source: E. coli BL21 Star (DE3) pLysS, purified (glutathione-sepharose, 3C protease cleavage, Superdex 200)
Take B1: the binding result in experiment [1] is reported as “binds”.

B2: Scc4 subunit of the cohesin loader (natural protein, S. cerevisiae)
chain: MENLGDKLSISQVYHLAQEYRDHAYSIANKIGSEEGLKQYYGLMNMSIQMFQLLKTKCTLSVLEDSKVTFEMVELLIQETYNFDLAELYISSLKERLQTHQSDTDLVEEIMRCEFLLLHDLPLMRDSKFHYKIALRNCNELVQYMVNLQDELYQNWASVFQYVGVMLCIKLKQHRRVKTSFHGLLSQCREKSQWKWFLNLCYVNYLLNERFPIPEDALQELRSTELHTVGPELYAWKLALEMVIQLCKDGNITDHLNEFKNFFDTNKQSLVTNEGKGCVIKIMPRIALKVELPMIFHYKELKNILLLLQSVSYIVNCYDEKGNFSRKFLPKVYSTTQKLIKNIAAGGVSMNELDSRIQTYKSILEFCEFYKVWEQTLLKGAVVTTESPKLGPSPGYVRLLQAMKVQFEGGGAVEEYTRLAQSGGTSSEVKMISLLNCYTVQAARVSRCSGDKQGELVEQCNKVWLQVEKLLQETDLQFNPIWECTVTILWLFSHFEPFSWNPLPCSDKQRAEYVSKLREFYSSNKFVAGEAVADNRFKLKKALLLQILVNYLGGRMLEHDLGEIYAISAKCFDMCRQQGGMRKVQYVIGIWHLMNCTVAMRGKDVALTNAKLEALVKQITSVKQ
notes: Scc4, budding yeast, as it stands in the purified Scc2-Scc4 complex; Present within m1 in the cross-linking experiment; tags as told under m1; source: subunit of Scc2-Scc4 purified from budding yeast (overexpressed)
As to B2, in experiment [2], the binding result was “binds”. For the molecule B3, the binding result in experiment [3] was “binds”.
